Data on 1 substance can be found in publication PMC9157410.

The target of the assay is recombinant TpiA (triosephosphate isomerase of Streptococcus pneumoniae D39) (S. pneumoniae D39) (UniProt P66943). The assay is described as follows: SPR; Biacore X100; rTpiA amine-coupled on a CM5 chip; plasminogen, laminin and BSA injected at 3.125 to 50 nM, contact time 120 s, 20 µL/min; 100 mM HEPES pH 7.4, 150 mM NaCl, 3 mM EDTA, 0.005% surfactant P20; apparent constants. In general terms: SPR reads the build-up and loss of mass on a sensor chip optically.
Sequence of UniProt P66943 (P66943 2-252): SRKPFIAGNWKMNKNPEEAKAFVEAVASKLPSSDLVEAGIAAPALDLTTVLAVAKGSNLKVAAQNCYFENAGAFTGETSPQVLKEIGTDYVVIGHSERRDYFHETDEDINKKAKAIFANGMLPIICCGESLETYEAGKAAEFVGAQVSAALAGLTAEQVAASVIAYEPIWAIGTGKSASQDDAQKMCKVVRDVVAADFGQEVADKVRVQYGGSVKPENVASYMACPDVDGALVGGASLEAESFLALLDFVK

As for “plasminogen from human plasma (natural protein)”, the Kd was 411 nM, the dissociation rate constant (koff) amounted to 0.00553 s⁻¹ and the kon turned out to be 13400 M⁻¹ s⁻¹.

Broadly, the koff is the first-order rate constant of dissociation. By kon is commonly meant the rate constant with which the complex forms.
